For experiment [1], the target named is T1, transcription factor HTF4A amino acids 296-494 (yeast; human, UniProt P04386 768-881; Q99081 296-494).
T1 sequence (looked up): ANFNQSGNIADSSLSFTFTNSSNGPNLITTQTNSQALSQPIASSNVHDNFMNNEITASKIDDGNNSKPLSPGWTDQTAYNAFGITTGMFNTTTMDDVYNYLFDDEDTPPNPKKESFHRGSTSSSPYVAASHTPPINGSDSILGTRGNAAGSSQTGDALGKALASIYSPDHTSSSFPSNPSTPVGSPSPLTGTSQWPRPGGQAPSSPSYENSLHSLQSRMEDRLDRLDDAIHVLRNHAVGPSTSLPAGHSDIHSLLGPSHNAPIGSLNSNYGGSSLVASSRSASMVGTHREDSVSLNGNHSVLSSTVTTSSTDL
The experiment is described as follows: yeast two-hybrid. An excerpt:
(§1) The principles and methods of the yeast two-hybrid systems have been described in detail (Bartel and Fields, 1997). The following is thus a description of the particular procedure that was used, which was applied to all proteins.
(§2) The cDNA encoding the bait protein was generated by PCR from brain cDNA. Gene-specific primers were synthesized with appropriate tails added at their 5′ ends to allow recombination into the vector pGBTQ. The tail for the forward primer was 5′-[…]-3′ (SEQ ID NO: 1) and the tail for the reverse primer was 5′-[…]-3′ (SEQ ID NO:2). […] The new construct was selected directly in the yeast J693 for its ability to drive tryptophane synthesis (genotype of this strain: Mat α, ade2, his3, leu2, trp1, URA3::GAL1-lacZ LYS2::GAL1-HIS3 gal4del gal80del cyhR2). In these yeast cells, the bait is produced as a C-terminal fusion protein with the DNA binding domain of the transcription factor Gal4 (amino acids 1 to 147). A total human brain (person) cDNA library cloned into the yeast expression vector pACT2 was purchased from Clontech (human brain […] cDNA, cat. # HL4004AH), transformed into the yeast strain J692 (genotype of this strain: Mat α, ade2, his3, leu2, trp1, URA3::GAL1-lacZ LYS2::GAL1-HIS3 gal4del gal80del cyhR2), and selected for the ability to drive leucine synthesis. In these yeast cells, each cDNA is expressed as a fusion protein with the transcription activation domain of the transcription factor Gal4 (amino acids 768 to 881) and a 9 amino acid hemagglutinin epitope tag. J693 cells […] expressing the bait were then mated with J692 cells […] expressing proteins from the brain library. The resulting diploid yeast cells expressing proteins interacting with the bait protein were selected for the ability to synthesize tryptophane, leucine, histidine, and β-galactosidase.

Experiment [2] has as its target T2, neuroendocrine protein Discs Large 3 (NE-dlg, DLG3) amino acids 94-506 (yeast; human, UniProt P04386 768-881; Q92796 94-506).
T2 construct: also called SAP102
T2 sequence (looked up): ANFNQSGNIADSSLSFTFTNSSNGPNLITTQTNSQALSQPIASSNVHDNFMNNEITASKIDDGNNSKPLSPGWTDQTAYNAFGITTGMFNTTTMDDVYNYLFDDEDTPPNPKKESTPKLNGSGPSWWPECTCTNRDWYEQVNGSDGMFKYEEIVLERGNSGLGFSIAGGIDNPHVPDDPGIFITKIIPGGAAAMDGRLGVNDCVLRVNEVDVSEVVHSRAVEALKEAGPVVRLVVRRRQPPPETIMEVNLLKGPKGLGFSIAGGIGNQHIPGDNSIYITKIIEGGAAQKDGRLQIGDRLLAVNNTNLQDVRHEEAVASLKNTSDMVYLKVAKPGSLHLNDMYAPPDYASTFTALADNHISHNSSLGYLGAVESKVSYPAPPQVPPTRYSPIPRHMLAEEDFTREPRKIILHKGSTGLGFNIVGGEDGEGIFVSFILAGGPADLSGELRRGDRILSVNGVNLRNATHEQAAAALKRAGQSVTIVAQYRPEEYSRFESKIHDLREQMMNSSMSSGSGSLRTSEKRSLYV
The experiment is described as follows: yeast two-hybrid.
Source text: as §1, §2

B1: bcr (break point cluster) amino acids 1206-1271, C-terminal bait (other, UniProt P04386 1-147, looked up)
chain: MKLLSSIEQACDICRLKKLKCSKEKPKCAKCLKNNWECRYSPKTKRSPLTRAHLTEVESRLERLEQLFLLIFPREDLDMILKMDSLQDIKALLTGLFVQDNVNKDAVTDRLASVETDMPLTLRQHRISATSSSEESSNKGQRQLTVSVFGPTLLRPSEKESKLPANPSQPITMTDSWSLEVMSQVQVLLYFLQLEAIPAPDSKRQSILFSTEV
Turning to B1, the binding result in experiment [1] and in experiment [2] was “binds” in each case.

These data come from US20020115606A1 (MYRIAD GENETICS, published 2002).
